Biological target: Meiothermus taiwanensis LonA (Lon AAA+ protease), wild type, full length (Meiothermus taiwanensis)
Test: cryo-EM structure

With “Meiothermus taiwanensis LonA (Lon AAA+ protease), wild type, full length (enzyme)” the stoichiometry N was 6.

Source: article doi:10.1101/2020.04.29.068361
